Test results: patent publication US12545745B2, “Method for treating a degenerative neurological disorders comprising administering ASM inhibitor” (KYUNGPOOK NATIONAL UNIVERSITY INDUSTRY-ACADEMIC COOPERATION …, priority 2013, dated 2026)

Columns and labels:
ASM [1] = target: T1, ASM (Mus musculus, UniProt Q04519); assay: ASM activity / concentration level in serum (plasma) and brain tissue of APP/PS1 mice (UPLC); type: in vivo; details: 7-month-old APP/PS1 mice, 50 mg/kg i.p. twice weekly, vs PBS; FIG. 51B
T1 construct: from tissue; host or cells: mouse serum/plasma and brain tissue (APP/PS1, RSD-stressed C57BL/6, FUS R521C mice)
T1 sequence (Q04519 45-627): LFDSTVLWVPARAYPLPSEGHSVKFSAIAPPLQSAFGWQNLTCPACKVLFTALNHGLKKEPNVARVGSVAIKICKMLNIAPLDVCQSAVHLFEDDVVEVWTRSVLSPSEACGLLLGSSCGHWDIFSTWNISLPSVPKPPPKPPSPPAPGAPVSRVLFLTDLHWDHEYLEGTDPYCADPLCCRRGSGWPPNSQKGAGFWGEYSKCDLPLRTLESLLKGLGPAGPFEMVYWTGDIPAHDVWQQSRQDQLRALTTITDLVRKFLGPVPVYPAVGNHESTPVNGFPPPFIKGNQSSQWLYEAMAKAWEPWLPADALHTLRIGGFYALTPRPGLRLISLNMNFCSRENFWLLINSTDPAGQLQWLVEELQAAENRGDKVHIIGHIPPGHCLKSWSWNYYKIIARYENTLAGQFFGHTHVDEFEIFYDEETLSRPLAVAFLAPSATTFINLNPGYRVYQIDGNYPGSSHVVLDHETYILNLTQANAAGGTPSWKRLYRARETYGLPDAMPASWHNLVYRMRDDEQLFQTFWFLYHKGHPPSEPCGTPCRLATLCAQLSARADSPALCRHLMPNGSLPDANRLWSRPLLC
Method: More specifically, 3 μl of plasma, brain tissue and fibroblast samples from each mouse were mixed with an ASM activity buffer, and stored at 37° C. The hydrolysis reaction was completed by adding 114 μl of ethanol to the mixed solution, and then the mixed solution was centrifuged. 30 μl of the supernatant was transferred into a glass vial, and then 5 μl was applied to the UPLC system. The ASM concentration level was quantified in comparison with a bodipy (aminoacetaldehyde) combined with sphingomyelin and ceramide. The sphingomyelin and ceramide levels were extracted and quantified according to a known method, by extracting lipid from the sample, resuspending the dried lipid extract in 25 μl of 0.2% Igepal CA-630 (Sigma-Aldrich), and quantifying the concentration level of each lipid using the UPLC system. […] The animal test conducted was approved by the Kyungpook National University Institutional Animal Care and Use Committee (IACUC). Transgenic mouse line overexpressing APPswe (hAPP695swe) and PS1 (presenilin-1M146V) based on C57BL/6 mice (Charles River, UK) were used as Alzheimer's animal models [hereinafter, APP mice: mice overexpressing APPswe, PS1 mice: overexpressing presenilin-1M146V; GlaxoSmithKline]. […] The concentration level of ASM was measured as follows. Specifically, 3μ ? of mouse serum, brain tissue and fibroblast samples were mixed with ASM activity buffer and stored at 37° C. 114 μ ? of ethanol was added to terminate the hydrolysis reaction, followed by centrifugation. […] The ASM concentration levels were quantified by comparison with sphingomyelin and Bodipy (aminoacetaldehyde) conjugated with ceramide. The extraction and quantification of the sphingomyelin and ceramide was carried out by extracting and drying the lipids from the sample according to a known conventional method, and resuspending the dried lipid extract to 25 μl of 0.2% Igepal CA-630 (Sigma-Aldrich), and the concentration levels of each lipid were quantitated using the UPLC system. […] The concentration level of ASM was measured as follows. […]

APP/PS1 mice [2] = assay: Fear conditioning test in APP/PS1 mice; type: in vivo, mouse; details: 50 mg/kg i.p. twice weekly, vs PBS, FIG. 55D
Excerpt: More specifically, wild type mice, APP/PS1/ASM^+/− mice, ASM^+/− mice and APP/PS1 mice were used. On day 1 of the test, each mouse was individually placed into a conditioned chamber, and then after a 60-second exploratory period, a tone (10 kHz, 70 dB) was delivered for 10 seconds. This served as the conditioned stimulus (CS). The CS was coterminated with the unconditioned stimulus (US), an electrical footshock (0.3 mA, 1 s). The CS-US pairing was delivered twice at a 20-second intertrial interval. On day 2, each mouse was placed in the fear-conditioning chamber containing the same exact context, but without administration of a CS or footshock. […] On day 3, each mouse was placed in a test chamber that was different from the conditioning chamber. After a 60-second exploratory period, the tone was presented for 60 seconds without the footshock. Freezing response was measured to measure fear memory. The results are illustrated in FIG. 9 and FIG. 10.
For the fear conditioning test, on the first day, mice were placed in a conditioning chamber, and sound stimulation (10 kHz, 70 dB) and electrical stimulation (0.3 mA, 1 s) were given. On the second day, memory for space was checked without stimulation in the same conditioning chamber as on the first day, and on the third day, a memory test for fear was performed when only sound stimulation was given in another conditioning chamber.

APP/PS1 mice [3] = assay: Morris water maze (MWM) test in APP/PS1 mice; type: in vivo, mouse; details: 50 mg/kg i.p. twice weekly, vs PBS, FIG. 55A-55C
Method: More specifically, wild type mice, APP/PS1/ASM^+/− mice, ASM^+/− mice and APP/PS1 mice were used. The mice were given four trials per day for 10 days to learn the task, and on day 11, the mice were given a probe trial in which the platform was removed. The escape latency during the test period and the time spent in the target platform on day 11 were measured. The results are illustrated in FIG. 7 and FIG. 8.
(§1) MWM (Morris water maze) experiments were performed in a conventional manner to identify potential effects on learning and memory. Briefly, for the MWM test, mouse were learned the task four times a day for 10 days, followed by the removal of the platform on the 11th day and subsequently a probe trial performed.
as §1, with “mice” for “mouse”

astrocytes and microglia = assay: Neuroinflammation in brain of APP/PS1 mice (GFAP, Iba-1 staining, cytokine real-time PCR); type: in vivo, mouse; details: cerebral medulla and hippocampus, vs PBS
Method: After fixing the cerebral and hippocampal tissues of the mice, 0.5% thioflavin S (Sigma-Aldrich), anti-20G10 antibodies (mouse, 1:1000) against Aβ42, anti-G30 antibodies (rabbit, […]) against Aβ40, anti-GFAP antibodies (rabbit, 1:500, DAKO), or anti-Iba-1 antibodies (rabbit, 1:500, Wako) were co-cultured. The tissues were analyzed using a laser scanning confocal microscope equipped with Fluoview SV1000 imaging software (Olympus FV1000, Japan) or an Olympus BX51 microscope. Percentage of stained area to total tissue area was quantified and analyzed using Metamorph software (Molecular Devices).
To quantify the expression levels of inflammatory cytokines (TNF-α, […] and IL-6), real-time quantitative PCR was used. […] Also, using Corbett research RG-6000 real-time PCR instrument, real-time quantitative PCR was performed with repeated 40 cycle (one cycle consisting of 95° C., 10 minutes; 95° C., 10 seconds; 58° C., 15 seconds; 72° C., 20 seconds). […]
After fixing the mouse brain and hippocampus, 0.5% thioflavin S (Sigma-Aldrich), anti-GFAP (rabbit, 1:500, DAKO), and anti-Iba-1 (rabbit, 1:500, WAKO) were co-cultured together. The regions were analyzed using a laser scanning confocal microscope equipped with Fluoview SV1000 imaging software (Olympus FV1000, Japan) or an Olympus BX51 microscope. […]

ASM [4] = target: T1, ASM; assay: ASM activity in plasma of ALS animal model (FUS R521C mice); type: in vivo; details: 7-week-old ALS mice, 50 mg/kg i.p. twice weekly, vs PBS; FIG. 56B

level of ASM concentration (ASM activity) in the plasma (ASM [1]): remarkably low
level of ASM activity in the plasma (ASM [4]): remarkably low
B1: ASM-ab 23A12C3: self-made monoclonal ASM antibody, Koma biotech; heavy chain SEQ ID NO. 29, light chain SEQ ID NO. 30 (antibody)
heavy: MGWSWIFLFLLSGTAGVHSEVQLQQSGPVLVKPGASVKMSCKASGYTFTDYYMNWVKQSHGKSLEWIGVINPYNDGTSYNQKFKGKATLTVDKSSSTAYMELNSLTSEDSAVYYCAREKLYYYGRDYAMDYWGQGTSVTVSSAKTTPPSVYPLAPGSAAQTNSMVTLGCLVKGYFPEPVTVTWNSGSLSSGVHTFPAVLQSDLYTLSSSVTVPSSTWPSQTVTCNVAHPASSTKVDKKIVPRDCGCKPCICTVPEVSSVFIFPPKPKDVLTITLTPKVTCVVVDISKDDPEVQFSWFVDDVEVHTAQTKPREEQINSTFRSVSELPIMHQDWLNGKEFKCRVNSAAFPAPIEKTISKTKGRPKAPQVYTIPPPKEQMAKDKVSLTCMITNFFPEDITVEWQWNGQPAENYKNTQPIMDTDGSYFVYSKLNVQKSNWEAGNTFTCSVLHEGLHNHHTEKSLSHSPGK
light: MSSAQFLGLLLLCFQGTRCDIQMTQTTSSLSASLGDRVTISCRSSQDISNYLNWCQQKPDGTVKLLIYYTSRLHSGVPSRFSGSGSGTDYSLTISNLEQEDIATYFCQQDNTLPYTFGGGTKLEIKRADAAPTVSIFPPSSEQLTSGGASVVCFLNNFYPKDINVKWKIDGSERQNGVLNSWTDQDSKDSTYSMSSTLTLTKDEYERHNSYTCEATHKTSTSPIVKSFNRNEC
modifications: 23A12C3_Heavy chain; 23A12C3_Light chain
notes: self-made monoclonal ASM antibody, Koma biotech; 30
impairments in spatial memory, cognition and memory formation (fear conditioning test) (APP/PS1 mice [2]): improved
impairments in spatial memory, cognition and memory formation (MWM) (APP/PS1 mice [3]): improved
activity of microglia (Iba-1) (astrocytes and microglia; FIG. 54A): significantly reduced
activity of astrocytes (GFAP) (astrocytes and microglia; FIG. 54B): significantly reduced
